Laboratory results taken from paper PMC8214733.
One block for each molecule: values may come before it.

Key:
Experiment in all cases: BRET assay (LuTHy system)
[1] = target: C-terminal portion of DYNC1H1 (1000 AA) fused to a proteinA-mCitrine tag (UniProt Q14204); conditions: parent: est. 0.52; read off a plot
[2] = target: sperm associated antigen 6 (SPAG6), full CDS fused to a proteinA-mCitrine tag (UniProt O75602); conditions: parent: est. 0.41; read off a plot
[3] = target: C-terminal portion of DYNC1H1 (1000 AA) fused to a proteinA-mCitrine tag, Q14204; conditions: chain shown with the change;; parent: est. 0.52; read off a plot
Chain of C-terminal portion of DYNC1H1 (1000 AA) fused to a proteinA-mCitrine tag, Q14204 (Q14204 whole entry, the tested form may be a part): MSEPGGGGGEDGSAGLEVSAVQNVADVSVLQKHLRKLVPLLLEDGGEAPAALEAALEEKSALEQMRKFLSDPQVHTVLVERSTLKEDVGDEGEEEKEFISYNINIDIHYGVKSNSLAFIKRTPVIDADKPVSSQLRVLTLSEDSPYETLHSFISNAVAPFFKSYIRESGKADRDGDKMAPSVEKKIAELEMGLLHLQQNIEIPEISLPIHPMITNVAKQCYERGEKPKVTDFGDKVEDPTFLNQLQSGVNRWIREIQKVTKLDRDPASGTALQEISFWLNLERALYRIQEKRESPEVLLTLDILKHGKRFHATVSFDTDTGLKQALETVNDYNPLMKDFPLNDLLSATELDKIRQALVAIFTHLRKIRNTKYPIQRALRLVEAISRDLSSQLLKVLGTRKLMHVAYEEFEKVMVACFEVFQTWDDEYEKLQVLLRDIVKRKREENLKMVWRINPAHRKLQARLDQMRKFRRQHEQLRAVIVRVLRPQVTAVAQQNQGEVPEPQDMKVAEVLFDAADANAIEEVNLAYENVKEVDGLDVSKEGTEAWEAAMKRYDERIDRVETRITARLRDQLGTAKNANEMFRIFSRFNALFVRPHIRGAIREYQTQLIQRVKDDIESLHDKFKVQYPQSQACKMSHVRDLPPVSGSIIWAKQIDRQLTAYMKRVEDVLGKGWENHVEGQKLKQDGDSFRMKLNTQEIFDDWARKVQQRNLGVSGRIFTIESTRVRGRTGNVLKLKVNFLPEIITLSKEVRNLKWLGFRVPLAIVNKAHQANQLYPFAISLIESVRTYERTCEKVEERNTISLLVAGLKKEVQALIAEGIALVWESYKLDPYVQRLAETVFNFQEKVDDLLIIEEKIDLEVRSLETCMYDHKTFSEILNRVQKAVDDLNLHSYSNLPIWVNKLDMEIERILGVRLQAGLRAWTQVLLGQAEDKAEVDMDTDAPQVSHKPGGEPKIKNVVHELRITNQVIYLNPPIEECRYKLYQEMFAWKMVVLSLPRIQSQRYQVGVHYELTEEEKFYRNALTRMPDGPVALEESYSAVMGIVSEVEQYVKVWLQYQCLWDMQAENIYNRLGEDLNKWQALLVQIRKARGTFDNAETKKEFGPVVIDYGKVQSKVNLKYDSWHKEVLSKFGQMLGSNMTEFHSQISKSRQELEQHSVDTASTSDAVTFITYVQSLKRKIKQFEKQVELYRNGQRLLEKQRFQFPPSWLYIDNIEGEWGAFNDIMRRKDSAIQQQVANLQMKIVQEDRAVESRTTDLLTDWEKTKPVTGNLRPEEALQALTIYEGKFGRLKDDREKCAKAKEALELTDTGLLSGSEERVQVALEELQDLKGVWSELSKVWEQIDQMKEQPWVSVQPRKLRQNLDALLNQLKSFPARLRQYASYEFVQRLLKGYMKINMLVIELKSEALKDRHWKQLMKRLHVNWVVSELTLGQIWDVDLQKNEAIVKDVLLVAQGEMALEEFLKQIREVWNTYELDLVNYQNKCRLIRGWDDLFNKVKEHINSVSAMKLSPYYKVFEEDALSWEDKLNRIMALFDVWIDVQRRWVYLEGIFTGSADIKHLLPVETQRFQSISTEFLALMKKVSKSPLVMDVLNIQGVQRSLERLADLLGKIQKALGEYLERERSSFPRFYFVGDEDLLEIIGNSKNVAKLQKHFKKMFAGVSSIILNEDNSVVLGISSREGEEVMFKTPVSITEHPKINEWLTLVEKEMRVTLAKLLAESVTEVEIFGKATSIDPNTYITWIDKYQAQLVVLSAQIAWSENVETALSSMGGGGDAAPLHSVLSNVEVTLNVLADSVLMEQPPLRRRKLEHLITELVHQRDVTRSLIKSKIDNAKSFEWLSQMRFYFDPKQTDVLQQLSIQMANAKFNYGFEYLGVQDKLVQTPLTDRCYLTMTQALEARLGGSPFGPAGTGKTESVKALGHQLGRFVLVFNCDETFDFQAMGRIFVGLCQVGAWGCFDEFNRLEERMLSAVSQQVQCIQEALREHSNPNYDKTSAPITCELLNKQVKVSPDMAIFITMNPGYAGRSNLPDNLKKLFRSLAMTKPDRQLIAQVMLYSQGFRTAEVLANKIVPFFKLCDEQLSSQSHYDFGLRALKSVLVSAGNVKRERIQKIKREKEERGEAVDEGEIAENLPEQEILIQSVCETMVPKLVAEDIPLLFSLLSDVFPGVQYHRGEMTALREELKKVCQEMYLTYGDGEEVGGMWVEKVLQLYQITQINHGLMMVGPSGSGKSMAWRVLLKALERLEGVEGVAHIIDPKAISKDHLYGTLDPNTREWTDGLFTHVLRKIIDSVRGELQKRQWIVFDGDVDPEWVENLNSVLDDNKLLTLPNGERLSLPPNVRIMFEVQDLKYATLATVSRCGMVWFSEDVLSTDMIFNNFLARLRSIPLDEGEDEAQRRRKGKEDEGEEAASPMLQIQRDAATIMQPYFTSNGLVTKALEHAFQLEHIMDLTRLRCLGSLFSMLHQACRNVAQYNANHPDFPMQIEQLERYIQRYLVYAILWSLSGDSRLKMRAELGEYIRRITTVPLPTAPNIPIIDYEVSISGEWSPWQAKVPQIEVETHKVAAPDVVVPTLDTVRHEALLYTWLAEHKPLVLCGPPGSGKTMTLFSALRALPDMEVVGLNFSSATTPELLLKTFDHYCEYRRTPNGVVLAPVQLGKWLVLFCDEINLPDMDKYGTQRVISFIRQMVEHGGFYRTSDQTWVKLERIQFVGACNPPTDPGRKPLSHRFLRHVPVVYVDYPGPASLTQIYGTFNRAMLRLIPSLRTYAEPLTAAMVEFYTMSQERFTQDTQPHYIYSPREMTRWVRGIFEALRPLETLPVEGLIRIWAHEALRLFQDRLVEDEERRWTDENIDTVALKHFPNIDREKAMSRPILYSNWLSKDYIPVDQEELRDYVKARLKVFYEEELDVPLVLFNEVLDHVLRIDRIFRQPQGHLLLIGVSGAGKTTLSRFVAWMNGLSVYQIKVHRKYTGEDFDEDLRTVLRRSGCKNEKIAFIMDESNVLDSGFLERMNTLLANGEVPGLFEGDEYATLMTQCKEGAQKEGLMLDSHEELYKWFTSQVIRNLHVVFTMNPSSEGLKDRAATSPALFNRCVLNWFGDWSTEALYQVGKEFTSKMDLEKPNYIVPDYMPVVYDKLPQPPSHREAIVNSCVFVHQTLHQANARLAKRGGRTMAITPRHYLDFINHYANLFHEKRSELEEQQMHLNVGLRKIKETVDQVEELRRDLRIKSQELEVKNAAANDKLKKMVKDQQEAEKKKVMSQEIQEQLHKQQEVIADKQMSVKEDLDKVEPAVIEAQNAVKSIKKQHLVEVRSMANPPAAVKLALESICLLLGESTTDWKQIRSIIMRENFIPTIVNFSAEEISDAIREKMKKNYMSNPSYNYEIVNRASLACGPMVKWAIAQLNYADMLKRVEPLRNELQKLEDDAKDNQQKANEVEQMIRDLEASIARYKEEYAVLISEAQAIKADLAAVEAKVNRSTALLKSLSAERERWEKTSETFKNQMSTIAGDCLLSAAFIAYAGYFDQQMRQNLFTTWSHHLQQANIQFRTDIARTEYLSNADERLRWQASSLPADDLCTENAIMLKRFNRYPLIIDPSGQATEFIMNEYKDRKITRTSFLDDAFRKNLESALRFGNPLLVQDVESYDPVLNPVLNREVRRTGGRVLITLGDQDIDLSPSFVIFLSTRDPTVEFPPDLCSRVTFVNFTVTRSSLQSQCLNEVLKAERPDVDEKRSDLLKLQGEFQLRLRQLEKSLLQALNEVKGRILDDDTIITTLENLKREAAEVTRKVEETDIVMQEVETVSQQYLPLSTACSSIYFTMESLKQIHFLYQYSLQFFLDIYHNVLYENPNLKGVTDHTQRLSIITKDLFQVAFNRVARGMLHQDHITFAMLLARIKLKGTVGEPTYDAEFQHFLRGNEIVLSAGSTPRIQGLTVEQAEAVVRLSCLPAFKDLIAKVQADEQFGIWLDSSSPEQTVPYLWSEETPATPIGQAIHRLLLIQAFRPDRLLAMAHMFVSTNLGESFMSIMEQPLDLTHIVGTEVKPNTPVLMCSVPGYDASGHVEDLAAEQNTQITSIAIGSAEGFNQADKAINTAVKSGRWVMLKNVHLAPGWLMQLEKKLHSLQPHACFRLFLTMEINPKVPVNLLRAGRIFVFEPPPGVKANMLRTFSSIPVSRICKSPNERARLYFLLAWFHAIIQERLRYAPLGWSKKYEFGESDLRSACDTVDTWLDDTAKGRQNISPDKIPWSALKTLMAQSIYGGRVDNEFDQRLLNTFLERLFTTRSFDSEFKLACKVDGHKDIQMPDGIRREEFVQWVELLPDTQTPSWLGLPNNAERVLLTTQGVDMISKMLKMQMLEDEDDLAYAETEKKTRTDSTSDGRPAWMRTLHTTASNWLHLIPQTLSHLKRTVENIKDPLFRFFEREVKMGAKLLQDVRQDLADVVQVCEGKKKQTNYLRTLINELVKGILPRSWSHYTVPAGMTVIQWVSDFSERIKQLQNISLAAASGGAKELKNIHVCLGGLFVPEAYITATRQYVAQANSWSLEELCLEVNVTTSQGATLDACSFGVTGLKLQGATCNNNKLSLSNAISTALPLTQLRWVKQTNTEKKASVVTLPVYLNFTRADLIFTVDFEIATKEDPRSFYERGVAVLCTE

[4] = target: T1, sperm associated antigen 6 (SPAG6), full CDS fused to a proteinA-mCitrine tag, O75602; conditions: chain shown with the change;; parent: est. 0.41; read off a plot
T1 chain: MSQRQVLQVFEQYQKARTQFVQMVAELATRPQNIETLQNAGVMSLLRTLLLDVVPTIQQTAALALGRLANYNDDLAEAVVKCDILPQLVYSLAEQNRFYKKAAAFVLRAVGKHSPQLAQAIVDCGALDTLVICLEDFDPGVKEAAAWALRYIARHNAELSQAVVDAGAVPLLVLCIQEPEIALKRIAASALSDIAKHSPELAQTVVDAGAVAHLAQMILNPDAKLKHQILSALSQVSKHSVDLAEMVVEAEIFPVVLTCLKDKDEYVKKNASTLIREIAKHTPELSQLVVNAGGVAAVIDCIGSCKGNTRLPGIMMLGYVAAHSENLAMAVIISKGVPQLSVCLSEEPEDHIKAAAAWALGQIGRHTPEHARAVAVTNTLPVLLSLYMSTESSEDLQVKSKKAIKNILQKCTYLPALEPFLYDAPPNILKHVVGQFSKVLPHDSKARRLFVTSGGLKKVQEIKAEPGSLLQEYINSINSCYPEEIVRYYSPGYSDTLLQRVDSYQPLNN

response [1]: 0.55
response [2]: 0.33
Molecule: coiled-coil domain-containing protein 103 (CCDC103), full-length coding sequence fused to a Nano-luciferase (NL)-Myc tag (from UniProt Q8IW40) p.Ala11Pro

response [3]: 0.38
response [4]: 0.22
B1: coiled-coil domain-containing protein 103 (CCDC103), full-length coding sequence fused to a Nano-luciferase (NL)-Myc tag, Q8IW40 p.His154Pro (protein)
chain: MERNDIINFKALEKELQAALTADEKYKRENAAKLRAVEQRVASYEEFRGIVLASHLKPLERKDKMGGKRTVPWNCHTIQGRTFQDVATEISPEKAPLQPETSADFYRDWRRHLPSGPERYQALLQLGGPRLGCLFQTDVGFGLLGELLVALADPVGPADRAAVLGILCSLASTGRFTLNLSLLSRAERESCKGLFQKLQAMGNPRSVKEGLSWEEQGLEEQSGGLQEEERLLQELLELYQVD
